Tests used:
[1] = biological target: ISG15-PLA2mX fusion (mouse) (UniProt Q9QXX3); assay: cell-based or functional assay
[2] = biological target: T1, Ubiquitin-PLA2mX fusion (UniProt Q9QXX3)
T1 sequence: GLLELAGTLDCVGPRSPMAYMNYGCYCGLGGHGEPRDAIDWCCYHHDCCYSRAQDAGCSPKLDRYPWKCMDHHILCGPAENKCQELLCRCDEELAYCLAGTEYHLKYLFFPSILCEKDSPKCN

Substance	rate of PLA2 activity (fluorescent lipid substrate), extracts of UBP43-transfected against non-transfected HEK293T cells [1] [fold]	Ratio of PLA2 activity, fusion with isopeptidase over fusion without [2]	cleavage of the fusion by SDS-PAGE (10 ug fusion, 3 ug core domain of USP2) [2]
UBP43, the ISG15-specific isopeptidase (enzyme)	4		
core domain of USP2 (shared core enzymatic domain of the spliced USP2 product, either USP2a or USP2b)		9.37	complete cleavage of the fused Ub-PLA2mX was seen

— patent US7842460
